Measured values reported in patent US20080318246A1, “Deeply quenched enzyme sensors” (The Albert Einstein College of Medicine of Yeshiva …, priority 2007, published 2008).

Target: cAMP-dependent protein kinase (PKA), murine catalytic subunit (murine) (UniProt P05132)
Assay: cell-based or functional assay

Row | IC50 of PKA activity (Deep Quench assay, P2/Ponceau S, 1 mM ATP) | IC50 of PKA activity (standard radioactive ATP method) | Substance
1 | 1100 nM | 1600 nM | PKI (14-22) peptide

Target: 14-3-3τ (UniProt P27348)
Sequence (P27348 whole entry): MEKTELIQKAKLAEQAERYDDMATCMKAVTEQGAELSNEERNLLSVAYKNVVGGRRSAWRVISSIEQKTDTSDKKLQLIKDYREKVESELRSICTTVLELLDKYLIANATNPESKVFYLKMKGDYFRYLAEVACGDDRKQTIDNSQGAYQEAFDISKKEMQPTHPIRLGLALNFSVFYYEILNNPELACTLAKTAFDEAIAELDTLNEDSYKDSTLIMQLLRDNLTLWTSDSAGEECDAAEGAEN
Assay: cell-based or functional assay

Row | Substance | % Fluorescence Enhancement on phosphorylation, no quenching dye | PKA-induced fluorescence change; Alizarin Red 5x | PKA-induced fluorescence change; Alizarin Red 10x | PKA-induced fluorescence change; Alizarin Red 25x | PKA-induced fluorescence change; Alizarin Red 50x | PKA-induced fluorescence change; Aniline Blue WS 5x | PKA-induced fluorescence change; Aniline Blue WS 10x | PKA-induced fluorescence change; Aniline Blue WS 25x | PKA-induced fluorescence change; Aniline Blue WS 50x | PKA-induced fluorescence change; Chlorazol Black E 5x
2 | P3, Ac-GRTDap(Pyr)RRFSYP-amide, serine-phosphorylated by PKA in the assay (peptide) | 19% | 1.28 fold | 1.21 fold | 1.17 fold | 1.05 fold | 1.5 fold | 2.17 fold | 3.79 fold | 0.99 fold | 1.79 fold
3 | P2, Ac-GRTGRRDap(Pyr)SYP-amide, serine-phosphorylated by PKA in the assay (peptide) | 51% | 1.59 fold | 1.38 fold | 1.37 fold | 1.3 fold | 1.85 fold | 2.48 fold | 2.52 fold | 1.83 fold | 2.26 fold

Continued, values first:

Row | % Fluorescence Enhancement on phosphorylation, no quenching dye | PKA-induced fluorescence change; Alizarin Red 5x | PKA-induced fluorescence change; Alizarin Red 10x | PKA-induced fluorescence change; Alizarin Red 25x | PKA-induced fluorescence change; Alizarin Red 50x | PKA-induced fluorescence change; Aniline Blue WS 5x | PKA-induced fluorescence change; Aniline Blue WS 10x | PKA-induced fluorescence change; Aniline Blue WS 25x | PKA-induced fluorescence change; Aniline Blue WS 50x | PKA-induced fluorescence change; Chlorazol Black E 5x | Substance
4 | 40% | 1.36 fold | 1.33 fold | 1.23 fold | 1.07 fold | 2.34 fold | 4.82 fold | 5.58 fold | 1.4 fold | 4.01 fold | P4, Ac-GRDap(Pyr)GRRFSYP-amide, serine-phosphorylated by PKA in the assay (peptide)
5 | 64% | 1.7 fold | 1.59 fold | 1.49 fold | 1.5 fold | 3.02 fold | 5.36 fold | 6.04 fold | 1.23 fold | 5.62 fold | phosphorylated P5 peptide AcDap(Pyr)RTGRRFS(PO3 2-)YP-amide

Same assay, conditions: not given

Row | Substance | PKA-induced fluorescence change; Chlorazol Black E 10x | PKA-induced fluorescence change; Chlorazol Black E 25x | PKA-induced fluorescence change; Chlorazol Black E 50x | PKA-induced fluorescence change; Eriochrome Black T 5x | PKA-induced fluorescence change; Eriochrome Black T 10x | PKA-induced fluorescence change; Eriochrome Black T 25x | PKA-induced fluorescence change; Eriochrome Black T 50x | PKA-induced fluorescence change; Evans Blue 5x | PKA-induced fluorescence change; Evans Blue 10x | PKA-induced fluorescence change; Evans Blue 25x
6 | P3, Ac-GRTDap(Pyr)RRFSYP-amide, serine-phosphorylated by PKA in the assay (peptide) | 0.71 fold | 0.92 fold | 0.25 fold | 1.1 fold | 1.02 fold | 0.58 fold | 0.31 fold | 1.1 fold | 1.06 fold | 1.06 fold
7 | P2, Ac-GRTGRRDap(Pyr)SYP-amide, serine-phosphorylated by PKA in the assay (peptide) | 2.84 fold | 0.6 fold | 0.35 fold | 1.46 fold | 1.42 fold | 1.13 fold | 3.71 fold | 1.92 fold | 1.37 fold | 1.01 fold

Other lines, results leading:

Row | PKA-induced fluorescence change; Chlorazol Black E 10x | PKA-induced fluorescence change; Chlorazol Black E 25x | PKA-induced fluorescence change; Chlorazol Black E 50x | PKA-induced fluorescence change; Eriochrome Black T 5x | PKA-induced fluorescence change; Eriochrome Black T 10x | PKA-induced fluorescence change; Eriochrome Black T 25x | PKA-induced fluorescence change; Eriochrome Black T 50x | PKA-induced fluorescence change; Evans Blue 5x | PKA-induced fluorescence change; Evans Blue 10x | PKA-induced fluorescence change; Evans Blue 25x | Substance
8 | 0.93 fold | 0.55 fold | 0.87 fold | 1.32 fold | 1.12 fold | 0.59 fold | 0.59 fold | 0.98 fold | 0.91 fold | 0.89 fold | P4, Ac-GRDap(Pyr)GRRFSYP-amide, serine-phosphorylated by PKA in the assay (peptide)
9 | 1.52 fold | 0.21 fold | 0.25 fold | 1.61 fold | 1.73 fold | 0.84 fold | 1.12 fold | 1.33 fold | 0.92 fold | 0.84 fold | phosphorylated P5 peptide AcDap(Pyr)RTGRRFS(PO3 2-)YP-amide

Same assay, conditions: not given

Row | Substance | PKA-induced fluorescence change; Evans Blue 50x | PKA-induced fluorescence change; Ponceau S 5x | PKA-induced fluorescence change; Ponceau S 10x | PKA-induced fluorescence change; Ponceau S 25x | PKA-induced fluorescence change; Ponceau S 50x | PKA-induced fluorescence change; Reactive Blue 2 5x | PKA-induced fluorescence change; Reactive Blue 2 10x | PKA-induced fluorescence change; Reactive Blue 2 25x | PKA-induced fluorescence change; Reactive Blue 2 50x | PKA-induced fluorescence change; Rose Bengal 5x
10 | P3, Ac-GRTDap(Pyr)RRFSYP-amide, serine-phosphorylated by PKA in the assay (peptide) | 0.99 fold | 1.81 fold | 2.26 fold | 2.75 fold | 2.88 fold | 1.48 fold | 2.29 fold | 3.56 fold | 1.68 fold | 2.7 fold
11 | P2, Ac-GRTGRRDap(Pyr)SYP-amide, serine-phosphorylated by PKA in the assay (peptide) | 0.94 fold | 1.93 fold | 1.92 fold | 4.61 fold | 6.57 fold | 1.99 fold | 2.08 fold | 5.66 fold | 6.3 fold | 2.58 fold

Results, then the substance that gave them:

Row | PKA-induced fluorescence change; Evans Blue 50x | PKA-induced fluorescence change; Ponceau S 5x | PKA-induced fluorescence change; Ponceau S 10x | PKA-induced fluorescence change; Ponceau S 25x | PKA-induced fluorescence change; Ponceau S 50x | PKA-induced fluorescence change; Reactive Blue 2 5x | PKA-induced fluorescence change; Reactive Blue 2 10x | PKA-induced fluorescence change; Reactive Blue 2 25x | PKA-induced fluorescence change; Reactive Blue 2 50x | PKA-induced fluorescence change; Rose Bengal 5x | Substance
12 | 0.91 fold | 2.26 fold | 2.63 fold | 2.88 fold | 2.69 fold | 2.16 fold | 2.66 fold | 3.55 fold | 4.27 fold | 6.52 fold | P4, Ac-GRDap(Pyr)GRRFSYP-amide, serine-phosphorylated by PKA in the assay (peptide)
13 | 0.78 fold | 2.85 fold | 3.3 fold | 3.23 fold | 4.36 fold | 2.28 fold | 3.99 fold | 6.44 fold | 5.79 fold | 8.36 fold | phosphorylated P5 peptide AcDap(Pyr)RTGRRFS(PO3 2-)YP-amide

Same assay, conditions: not given

Row | Substance | PKA-induced fluorescence change; Rose Bengal 10x | PKA-induced fluorescence change; Rose Bengal 25x | PKA-induced fluorescence change; Rose Bengal 50x | PKA-induced fluorescence change; Tartrazine 5x | PKA-induced fluorescence change; Tartrazine 10x | PKA-induced fluorescence change; Tartrazine 25x | PKA-induced fluorescence change; Tartrazine 50x | PKA-induced fluorescence change; Trypan Blue 5x | PKA-induced fluorescence change; Trypan Blue 10x | PKA-induced fluorescence change; Trypan Blue 25x
14 | P3, Ac-GRTDap(Pyr)RRFSYP-amide, serine-phosphorylated by PKA in the assay (peptide) | 1.98 fold | 1.13 fold | 0.97 fold | 1.19 fold | 1.34 fold | 1.47 fold | 1.02 fold | 2.23 fold | 2.72 fold | 1.91 fold
15 | P2, Ac-GRTGRRDap(Pyr)SYP-amide, serine-phosphorylated by PKA in the assay (peptide) | 2.87 fold | 1.58 fold | 0.72 fold | 1.41 fold | 1.61 fold | 1.82 fold | 2.51 fold | 2.2 fold | 2.81 fold | 5.11 fold

Next, values leading:

Row | PKA-induced fluorescence change; Rose Bengal 10x | PKA-induced fluorescence change; Rose Bengal 25x | PKA-induced fluorescence change; Rose Bengal 50x | PKA-induced fluorescence change; Tartrazine 5x | PKA-induced fluorescence change; Tartrazine 10x | PKA-induced fluorescence change; Tartrazine 25x | PKA-induced fluorescence change; Tartrazine 50x | PKA-induced fluorescence change; Trypan Blue 5x | PKA-induced fluorescence change; Trypan Blue 10x | PKA-induced fluorescence change; Trypan Blue 25x | Substance
16 | 2.88 fold | 1.1 fold | 0.91 fold | 1.28 fold | 1.42 fold | 1.46 fold | 1.47 fold | 3.03 fold | 2.18 fold | 1.72 fold | P4, Ac-GRDap(Pyr)GRRFSYP-amide, serine-phosphorylated by PKA in the assay (peptide)
17 | 3.45 fold | 1.02 fold | 0.95 fold | 1.43 fold | 1.52 fold | 1.79 fold | 2.05 fold | 6.21 fold | 2.72 fold | 3.61 fold | phosphorylated P5 peptide AcDap(Pyr)RTGRRFS(PO3 2-)YP-amide

Same assay, conditions: not given

Row | Substance | PKA-induced fluorescence change; Trypan Blue 50x | Phosphorylation-induced fluorescence fold-change; P2/Ponceau S (1:50), plate reader - bottom read | Phosphorylation-induced fluorescence fold-change; P2/Ponceau S (1:50), plate reader - top read | Phosphorylation-induced fluorescence fold-change; P2/Ponceau S (1:50), spectrofluorimeter | Phosphorylation-induced fluorescence fold-change; P5/Rose Bengal (1:5), plate reader - bottom read | Phosphorylation-induced fluorescence fold-change; P5/Rose Bengal (1:5), plate reader - top read | Phosphorylation-induced fluorescence fold-change; P5/Rose Bengal (1:5), spectrofluorimeter
18 | P3, Ac-GRTDap(Pyr)RRFSYP-amide, serine-phosphorylated by PKA in the assay (peptide) | 1.6 fold |  |  |  |  |  | 
19 | P2, Ac-GRTGRRDap(Pyr)SYP-amide, serine-phosphorylated by PKA in the assay (peptide) | 6.03 fold | 7 fold | 15 fold | 21 fold |  |  | 

Next, values leading:

Row | PKA-induced fluorescence change; Trypan Blue 50x | Phosphorylation-induced fluorescence fold-change; P2/Ponceau S (1:50), plate reader - bottom read | Phosphorylation-induced fluorescence fold-change; P2/Ponceau S (1:50), plate reader - top read | Phosphorylation-induced fluorescence fold-change; P2/Ponceau S (1:50), spectrofluorimeter | Phosphorylation-induced fluorescence fold-change; P5/Rose Bengal (1:5), plate reader - bottom read | Phosphorylation-induced fluorescence fold-change; P5/Rose Bengal (1:5), plate reader - top read | Phosphorylation-induced fluorescence fold-change; P5/Rose Bengal (1:5), spectrofluorimeter | Substance
20 | 2.76 fold |  |  |  |  |  |  | P4, Ac-GRDap(Pyr)GRRFSYP-amide, serine-phosphorylated by PKA in the assay (peptide)
21 | 3.48 fold |  |  |  | 8 fold | 30 fold | 64 fold | phosphorylated P5 peptide AcDap(Pyr)RTGRRFS(PO3 2-)YP-amide
